For data set [1], the target named is CEP97^CP110-GFP-SII (CEP97 residues 1–650 fused to CP110 residues 581–991) (human) (UniProt Q8IW35).
Data set [2] deals with the molecule itself. The experiment in a line: SEC-MALS; 20°C, Superdex S75 10/30 or S200 10/30, 20 mM HEPES pH 7.5, 150 mM NaCl, 2 mM DTT; 15 µl at ∼7 mg/ml; proteins alone or mixed equimolar (also 2:1 and 3:1); homodimer for CP110-CC2. In general terms: In gel filtration, larger molecules generally elute earlier.
The target of data set [3] is T1, CPAP-CC1 (residues 89–196) (human, UniProt Q9HC77 89-196).
T1 construct: Calculated mass of the monomer: 12.5 kDa; source: E. coli BL21(DE3), purified (Ni-NTA, tag cleaved with HRV 3C protease, SEC); not shown: thioredoxin, N-terminal, cleaved; His6, N-terminal, cleaved
T1 sequence (looked up): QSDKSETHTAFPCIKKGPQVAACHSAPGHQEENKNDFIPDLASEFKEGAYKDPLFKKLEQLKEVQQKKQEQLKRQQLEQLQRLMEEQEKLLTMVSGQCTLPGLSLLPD
Description: cross-linking; zero-length cross-linking with 60 mM DMTMM, 6 min, 25°C, then mass spectrometry (xQuest). Conditions: both partners purified.

Data set [4] concerns the molecule itself. Description: single-molecule fluorescence intensity (TIRF microscopy); single molecules immobilised on coverslips in MRB80; intensity compared with GFP (monomers) and GFP-EB3 (dimers).

Regarding “CPAP-NMUT-mCh (CPAP 1–607 L149A/K150A, GCN4 leucine zipper, mCherry, SII) (from UniProt Q9HC77 1-607)”, the percentage of time CEP97^CP110-GFP was bound to MT plus ends, 20 nM CEP97^CP110-GFP with 50 nM CPAP-NMUT-mCh in data set [1] was found to be 26%.

Take “CPAP-NWT-mCh (CPAP 1–607, GCN4 leucine zipper, mCherry, SII) (from UniProt Q9HC77 1-607)”: in data set [1], the MT plus-end growth rate with 20 nM CEP97^CP110-GFP and 50 nM CPAP-NWT-mCh (TIRF reconstitution) was in the range of 0.05 to 0.1 µm/min; the percentage of time CEP97^CP110 was present at MT plus ends, 20 nM CEP97^CP110-GFP with 50 nM CPAP-NWT-mCh is 69%.

B1: CP110-CC2 (residues 635–717) (domain or fragment, human, UniProt O43303-2 635-717, looked up)
chain: GTSSKESEELLKSKMLAFEEMRKRLEEQHAQQLSLLIAEQEREQERLQKEIEEQEKMLKEKKAMTAEASELDINNAVELEWRK
notes: CP110, human, residues 635-717 (coiled-coil domain CC2); Homodimer alone by SEC-MALS; one chain in the heterodimer with CPAP-CC1; Calculated mass of the monomer: 10.0 kDa; also called CP110 fragment 635–717; source: E. coli BL21(DE3), purified (Ni-NTA, tag cleaved with HRV 3C protease, SEC); not shown: thioredoxin, N-terminal, cleaved; His6, N-terminal, cleaved
For orientation: stoichiometry N means a count of units in the complex or per binding partner. As to B1, the “stoichiometry N” value in data set [2] was found to be 2. The binding result in data set [3] is on record as “binds”.

B2: CEP97^CP110-GFP-SII (CEP97 residues 1–650 fused to CP110 residues 581–991) (other, human, UniProt Q8IW35 1-650, looked up)
chain: MAVARVDAALPPGEGSVVNWSGQGLQKLGPNLPCEADIHTLILDKNQIIKLENLEKCKRLIQLSVANNRLVRMMGVAKLTLLRVLNLPHNSIGCVEGLKELVHLEWLNLAGNNLKAMEQINSCTALQHLDLSDNNISQIGDLSKLVSLKTLLLHGNIITSLRMAPAYLPRSLAILSLAENEIRDLNEISFLASLTELEQLSIMNNPCVMATPSIPGFDYRPYIVSWCLNLRVLDGYVISQKESLKAEWLYSQGKGRAYRPGQHIQLVQYLATVCPLTSTLGLQTAEDAKLEKILSKQRFHQRQLMNQSQNEELSPLVPVETRASLIPEHSSPVQDCQISQESEPVIQVNSWVGINSNDDQLFAVKNNFPASVHTTRYSRNDLHLEDIQTDEDKLNCSLLSSESTFMPVASGLSPLSPTVELRLQGINLGLEDDGVADESVKGLESQVLDKEEEQPLWAANENSVQMMRSEINTEVNEKAGLLPCPEPTIISAILKDDNHSLTFFPESTEQKQSDIKKPENTQPENKETISQATSEKLPMILTQRSVALGQDKVALQKLNDAATKLQACWRGFYARNYNPQAKDVRYEIRLRRMQEHIVCLTDEIRRLRKERDEERIKKFVQEEAFRFLWNQVRSLQVWQQTVDQRLSSWHFEKVKRRLDLDIDGLQKENCPYVITSGITEQERQHLPEKRYPKGSGFVNKNKMLGTSSKESEELLKSKMLAFEEMRKRLEEQHAQQLSLLIAEQEREQERLQKEIEEQEKMLKEKKAMTAEASELDINNAVELEWRKISDSSLLETMLSQADSLHTSNSNSSGFTNSAMQYSFVSANEAPFYLWGSSTSGLTKLSVTRPFGRAKTRWSQVFSLEIQAKFNKITAVAKGFLTRRLMQTDKLKQLRQTVKDTMEFIRSFQSEAPLKRGIVSAQDASLQERVLAQLRAALYGIHDIFFVMDAAERMSILHHDREVRKEKMLRQMDKMKSPRVALSAATQKSLDRKKYMKAAEMGMPNKKFLVKQNPSETRVLQPNQGQNAPVHRLLSRQGSICRKNPKKAAKCCDNLRRQHSLG
notes: CEP97, human, residues 1-650; Dimer by single-molecule fluorescence intensity; A linker between the two parts is not described; also called CP110-CEP97 fusion; CEP97^CP110 chimera; source: HEK293T, transfected; purified (StrepTactin) for the in vitro assays; in lysate for the co-immunoprecipitation; not shown: GFP, C-terminal, kept; twin-Strep-tag (SII), C-terminal, kept
On to B2, for which, in data set [4], the “stoichiometry N” value was 2.

(Values after paper PMC11756378, “Centriolar cap proteins CP110 and CPAP control slow elongation of microtubule plus ends” (The Journal of Cell Biology, 2025).)
